In the nanobody polyreactivity screen of Harvey et al. (2022):

Experiment: yeast display, Sf9 membrane polyspecificity reagent, FACS + sequencing; frameworks hold sequencing errors
Method in brief: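 Sorting gates, low and high (top ~1%), were placed on anti-HA fluorescence to track expression and on streptavidin fluorescence to track reagent binding. A clone's polyreactivity label is taken from the gate it came out of. The reagent was 10% biotinylated, detergent-solubilized Sf9 membrane, applied for 1 hour at 4 °C to galactose-induced yeast display cells.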

Sequence	polyreactivity (PSR sort gate)
QVQLVESGGGLVQAGGSLRLSCAASGGTFGTYAMGWYRQAPGKERELVAAITRSGGSTYADSVKGRFTISRDNAKNTVYLQMNSMKPEDTAVYYCNTRTTWRRYVVNGYDYWGQGTQVTVSS	low polyreactivity
QVQLVESGGGLVQAGGSLRLSCAASGGTFGVNAMGWYRQAPGKDRELVAAISSSGGRTYYADSVKGRFTISRDNAKNTVYLQMNSLKPEDTAVYYCAARNYFWGQGTQVTVSS	low polyreactivity
QVQLVESGGGLVQAGGSLRLSCAASGGTFGYNTLGWYRQAPGKERELVAAITGSGGRTYYADSVKGRFTISRDNAKNTVYLQMNSLKPEDTAVYYCNALTYPDYGYWGQGTQVTVSS	low polyreactivity
QVQLVESGGGLVQAGGSLRLSCAASGGTFIVYAMGWYRQAPGKERELVAAITYSGGSTYYADSVKGRFTISRDNAKNTVYLQMNSLKPEVTAVYYCAARPFVSSWLQYAEGGDYWGQGTQVTVSS	low polyreactivity
QVQLVESGGGLVQAGGSLRLSCAASGGTFKPNVMGWYRQAPGKERELVAAITSGGSTYYADSVKGRFTMSRDNAKNTVYLQMNSLKPEDTAVYYCAATSLRRYGYNYWGQGTQVTVSS	high polyreactivity
QVQLVESGGGLVQAGGSLRLSCAASGGTFLAYAMGWSRQAPGKEREFVAGISNDGDTNYADSVKGRFTISRDNAKNTVYLQMNSLKPEDTAVYYCAALYRGYAVAASYYHWGQGTQVTVSS	high polyreactivity
QVQLVESGGGLVQAGGSLRLSCAASGGTFNHYAMGWYRQAPGKERELVASITNGASTYYADSVKGRFTISRDNAKNTVYLQMNSLKPEDTAVYYCAKRGRVGKYRYEYWGQGTQVTVSS	low polyreactivity
QVQLVESGGGLVQAGGSLRLSCAASGGTFPLYAMGWYRQAPGKERELVAAIRWSGGRTYYADSVKGRFTISRDNAKNTVYLQMNSLKPEDTAVYYCAADYDDGWGYDYWGQGTQVTVSS	high polyreactivity
QVQLVESGGGLVQAGGSLRLSCAASGGTFPQNLMGWYRQAPGQERELVAAISSGGSTYYADSGKGRFTISRDNAKNSVYLQMNSLKPEDTAVYYCAKRRWYRYDYWGQGTQVTVSS	high polyreactivity
QVQLVESGGGLVQAGGSLRLSCAASGGTFPWYTKGWYRQAPGKERELVATIRGRDGSTFYADSVKGRFTISRDNAKNTVYLQMNSLKPEDTAVYYCAAVGRRKDLRWGVYYRFDYWGQGTQVTVSS	low polyreactivity
QVQLVESGGGLVQAGGSLRLSCAASGGTFPYNAMGWYRQAPGKEREFVAAISYTGGSTYYADSVKGRFTISRDNAKNTVYLQMNSLKPEDTAVYYCATEHTRTASGYWGQGTQVTVSS	low polyreactivity
QVQLVESGGGLVQAGGSLRLSCAASGGTFPYYAMGWYRQAPGKERELVADISGTDGSTYYADSVKGRFTISRDNAKNTVYLQMNSLKPEDTAVYYCNAEPHWWYWDYDYWGQGTQVTVSS	high polyreactivity
QVQLVESGGGLVQAGGSLRLSCAASGGTFQDYGMGWYRQAPGTERELVAAITWSGGSTYYADSVKGRFTISRDNAKNTVYLQMNSLKPEDTAVYYCAAVYADVYLYLTAYDYWGQGTQVTVSS	low polyreactivity
QVQLVESGGGLVQAGGSLRLSCAASGGTFRAYVMGWYRQAPGKERELVAAISRRGGSTYYADSVKGRFTISRDNAKNTVYLQMNSLKPEDTAVYYCNAPRLLLSYTPGLDRWPYGVYWGQGTQVTVSS	high polyreactivity
QVQLVESGGGLVQAGGSLRLSCAASGGTFRGYAMGWYRQAPGKERELVAAISRGTSTNYADSVKGRFTISRDNAKNTVYLHLNSLKPEDTAVYYCNAAKRGWYYDYYYWGQGTQVTVSS	high polyreactivity
QVQLVESGGGLVQAGGSLRLSCAASGGTFRGYAMGWYRQAPGKERELVAAITYSGGRTYYADSVKGRFTISRDNAKNTVYLQMNSLKPEDTAVYYCNAQSSGRLSYRYDYWGQGTQVTVSS	high polyreactivity
QVQLVESGGGLVQAGGSLRLSCAASGGTFRNYAMGWYRQAPGKERELVAGITSGSRTNYADSVKGRFTISRDNAKNTVYLQMNSLKPEDTAVYYCNARGNYVGRPYPVKHAYRSYYWGQGTQVTVSS	high polyreactivity
